According to patent publication US11268099:
pKd: −log10 of the molar value.

What was measured:
[1] = tested on: 2G12 (anti-HIV-1 gp120 carbohydrate-binding monoclonal antibody); assay: BLI; settings: N are Man9-derivatized dU (3 sites); 5' A5 spacer [26,33,39]; 1:1 global fit; kon 2.04e4 /M/s, koff 2.53e-4 /s
[2] = tested on: 2G12 (anti-HIV-1 gp120 carbohydrate-binding monoclonal antibody); assay: filter

AAAAACGGGTACGGGAGACCCACGGTGCAACCTACGGATAAAGCACACAGGAGACGACAAG [Clone 1 biotinylated glycoDNA (BLI)]
pKd [1]: 7.91

CGGGTACGGGAGACCCATGGTGCAACCTACGGATAAAGCACACAGGAGACGACAAG [Clone 7 glycoDNA]
pKd ([2]; all T in random region are EdU-Man9, moderate binding, Mg2+ buffer): 7.92

CGGGTACGGGAGACCCACAGTGCAACCTACGGATAAAGCACACAGGAGACGACAAG [Clone 2 glycoDNA]
pKd ([2]; all T in random region are EdU-Man9 (3 sites), 20 mM Tris pH 7.5, 150 mM NaCl, 4 mM MgSO4, BSA, binding at 37 C also shown in FIG. 11): 8.77
